Data reported in patent US20180222961A1 (IMMATICS BIOTECHNOLOGIES, published 2018).

What follows are binders tested against T1, HLA-A*02:01 (human) (assay: UV-exchange b2m ELISA; exchange-yield grade).
T1 construct: also called peptide-receptive MHC molecules
Procedure, shortened: (§1)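 Binding capacity is graded by how much β2m-containing, stabilised complex survives UV-induced loss of the placeholder peptide. An anti-β2m sandwich ELISA on streptavidin capture, calibrated with refolded monomers (15-500 ng/ml), measures this.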

Row | Binder | peptide exchange yield [%]
1 | GLLQELSSI | > 75
2 | TLLKALLEI | > 75
3 | MIPTFTALL | 50 to 75
4 | GLLSLTSTLYL | > 75
5 | MMEEMIFNL | > 75
6 | SLLLPSIFL | > 75
7 | VLQGLLRSL | > 75
8 | YLEDTDRNL | > 75
9 | TTYEGSITV | > 75
10 | YLTDLQVSL | > 75
11 | FLIEELLFA | > 75
12 | KLFDTQQFL | > 75
13 | KVLGVNVML | > 75
14 | FLDPDRHFL | > 75
15 | YMVHIQVTL | > 75

Each binder was assayed against T2, HLA-A*03:01 (human) (assay: UV-exchange b2m ELISA; exchange-yield grade).
T2 construct: also called peptide-receptive MHC molecules
Procedure, shortened: as §1

Row | Binder | peptide exchange yield [%]
16 | KVVDRWNEK | 20 to 50
17 | LLQPPPLLAR | 20 to 50

These binders were tested against T3, HLA-B*44:02 (human) (assay: UV-exchange b2m ELISA; exchange-yield grade).
T3 construct: also called peptide-receptive MHC molecules
Procedure, shortened: as §1

Row | Binder | peptide exchange yield [%] | binding result
18 | LEKALQVF | 20 to 50 | 
19 | KEFLFNMY | 20 to 50 | 
20 | TEVSRTEAI | 20 to 50 | 
21 | REEFVSIDHL | 20 to 50 | 
22 | RELANDELIL | 20 to 50 | 
23 | REAGDEFEL | 20 to 50 | 
24 | EDGRLVIEF | 10 to 20 | 
25 | SEVPTGTTA | 20 to 50 | 
26 | AERQPGAASL | 20 to 50 | 
27 | AEIEPKADG | 20 to 50 | 
28 | SDSQVRAF | 10 to 20 | 
29 | VEQTRAGSLL | 20 to 50 | 
30 | NEIWTHSY | 10 to 20 | 
31 | NEAIMHQY | 20 to 50 | 
32 | FESHSTVSA | 10 to 20 | 
33 | SEDGLPEGIHL | 20 to 50 | 
34 | TEVSRTEL | 20 to 50 | 
35 | QEILTQVKQ | 20 to 50 | 
36 | YEVARILNL | 20 to 50 | 
37 | REKFIASVI | 20 to 50 | 
38 | LEAQQEAL | 20 to 50 | 
39 | SEDPSKLEA | 10 to 20 | 
40 | YEKGIMQKV | 20 to 50 | 
41 | TEFPLFSAA | 10 to 20 | 
42 | LELPPILVY | 10 to 20 | 
43 | REAGDEFELRY | 20 to 50 | 
44 | MEHPGKLLF |  | binds
45 | REPGDIFSEL | 20 to 50 | 

Row | Binder | peptide exchange yield [%] | binding result
46 | AEATARLNVF |  | binds
47 | SFEQVVNELF | 20 to 50 | 
48 | REGDTVQLL | 20 to 50 | 
49 | GEPATTVSL | 20 to 50 | 
50 | KEAIREHQM | 20 to 50 | 
51 | SEITRIEM | 20 to 50 | 
52 | KESIPRWYY | 20 to 50 | 
53 | REGPEEPGL | 20 to 50 | 
54 | AEHEGVSVL | 20 to 50 | 
55 | AEHFSMIRA | 20 to 50 | 
56 | EDAALFKAW | 20 to 50 | 
57 | QEAARAAL | 20 to 50 | 
58 | GEIEIHLL | 10 to 20 | 
59 | IEHSTQAQDTL | 20 to 50 | 
60 | PEKTTHSF | 10 to 20 | 
61 | AEDKRHYSV | 20 to 50 | 
62 | HEFGHVLGL | 20 to 50 | 
63 | GEMEQKQL | 20 to 50 | 
64 | AEQDPDELNKA | 20 to 50 | 
65 | KEVDPTSHSY | 20 to 50 | 
66 | EEAQWVRKY | 20 to 50 | 
67 | HESSSHHDL | 20 to 50 | 
68 | GEGPKTSW | 20 to 50 | 
69 | TEAVVTNEL | 20 to 50 | 
70 | AEFLLRIFL | 20 to 50 | 
71 | IEALSGKIEL (also called lEALSGKIEL) | 20 to 50 | 
72 | EEQYIAQF | 10 to 20 | 
